Measurements: patent publication US20220332804A1 (CSL INNOVATION, published 2022)

Columns and labels:
Assay in all cases: SPR, KD relative to WT C2;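 further: biacore SPR at 37 °C, anti-C2 mAbs captured on anti-human IgG chips with alanine or serine point mutants of C2 as analyte, KD from 1:1 fit compared with wild-type C2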
human C2 A444S = molecular target: T1, human C2 A444S (human, UniProt P06681 21-752)
T1 sequence: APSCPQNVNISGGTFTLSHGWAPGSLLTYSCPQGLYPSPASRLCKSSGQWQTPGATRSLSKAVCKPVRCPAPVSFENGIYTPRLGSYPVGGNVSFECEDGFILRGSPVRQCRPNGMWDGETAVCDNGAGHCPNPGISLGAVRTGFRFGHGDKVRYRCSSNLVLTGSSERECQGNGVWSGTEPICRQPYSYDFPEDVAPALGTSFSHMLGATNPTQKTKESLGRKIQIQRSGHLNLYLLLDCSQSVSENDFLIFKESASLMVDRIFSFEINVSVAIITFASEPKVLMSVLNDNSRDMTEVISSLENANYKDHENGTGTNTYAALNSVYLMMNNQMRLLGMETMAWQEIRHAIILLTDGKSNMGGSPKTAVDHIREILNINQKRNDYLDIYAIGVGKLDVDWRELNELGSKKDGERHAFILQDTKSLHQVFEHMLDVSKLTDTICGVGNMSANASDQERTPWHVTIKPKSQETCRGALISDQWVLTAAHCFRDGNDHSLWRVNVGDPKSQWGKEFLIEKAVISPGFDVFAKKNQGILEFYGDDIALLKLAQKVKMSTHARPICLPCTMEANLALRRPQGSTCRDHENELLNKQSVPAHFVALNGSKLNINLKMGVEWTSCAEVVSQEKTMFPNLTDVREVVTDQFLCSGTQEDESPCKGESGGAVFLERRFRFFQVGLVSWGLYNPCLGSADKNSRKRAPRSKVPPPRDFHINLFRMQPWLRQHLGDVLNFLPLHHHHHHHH

human C2 Q447A = molecular target: T2, human C2 Q447A (human, UniProt P06681 21-752)
T2 sequence: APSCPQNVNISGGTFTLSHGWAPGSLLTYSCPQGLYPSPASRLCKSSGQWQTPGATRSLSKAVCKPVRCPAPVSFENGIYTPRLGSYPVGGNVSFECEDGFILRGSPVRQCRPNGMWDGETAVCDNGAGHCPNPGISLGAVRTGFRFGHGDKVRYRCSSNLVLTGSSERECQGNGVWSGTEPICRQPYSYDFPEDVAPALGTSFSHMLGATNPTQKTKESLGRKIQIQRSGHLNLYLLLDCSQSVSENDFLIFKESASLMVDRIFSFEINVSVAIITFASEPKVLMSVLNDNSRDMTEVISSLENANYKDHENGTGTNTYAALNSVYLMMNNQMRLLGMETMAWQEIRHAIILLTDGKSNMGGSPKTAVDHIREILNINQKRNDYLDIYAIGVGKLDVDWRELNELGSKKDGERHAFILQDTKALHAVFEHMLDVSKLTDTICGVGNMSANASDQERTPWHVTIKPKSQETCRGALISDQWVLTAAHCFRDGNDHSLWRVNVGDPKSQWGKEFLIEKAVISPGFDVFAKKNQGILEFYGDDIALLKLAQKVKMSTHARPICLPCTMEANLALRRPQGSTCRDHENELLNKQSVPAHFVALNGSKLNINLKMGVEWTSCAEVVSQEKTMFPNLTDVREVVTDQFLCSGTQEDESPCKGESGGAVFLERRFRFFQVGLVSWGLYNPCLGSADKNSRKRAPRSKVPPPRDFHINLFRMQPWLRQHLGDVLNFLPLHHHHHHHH

human C2 N268A = molecular target: T3, human C2 N268A (human, UniProt P06681 21-752)
T3 sequence: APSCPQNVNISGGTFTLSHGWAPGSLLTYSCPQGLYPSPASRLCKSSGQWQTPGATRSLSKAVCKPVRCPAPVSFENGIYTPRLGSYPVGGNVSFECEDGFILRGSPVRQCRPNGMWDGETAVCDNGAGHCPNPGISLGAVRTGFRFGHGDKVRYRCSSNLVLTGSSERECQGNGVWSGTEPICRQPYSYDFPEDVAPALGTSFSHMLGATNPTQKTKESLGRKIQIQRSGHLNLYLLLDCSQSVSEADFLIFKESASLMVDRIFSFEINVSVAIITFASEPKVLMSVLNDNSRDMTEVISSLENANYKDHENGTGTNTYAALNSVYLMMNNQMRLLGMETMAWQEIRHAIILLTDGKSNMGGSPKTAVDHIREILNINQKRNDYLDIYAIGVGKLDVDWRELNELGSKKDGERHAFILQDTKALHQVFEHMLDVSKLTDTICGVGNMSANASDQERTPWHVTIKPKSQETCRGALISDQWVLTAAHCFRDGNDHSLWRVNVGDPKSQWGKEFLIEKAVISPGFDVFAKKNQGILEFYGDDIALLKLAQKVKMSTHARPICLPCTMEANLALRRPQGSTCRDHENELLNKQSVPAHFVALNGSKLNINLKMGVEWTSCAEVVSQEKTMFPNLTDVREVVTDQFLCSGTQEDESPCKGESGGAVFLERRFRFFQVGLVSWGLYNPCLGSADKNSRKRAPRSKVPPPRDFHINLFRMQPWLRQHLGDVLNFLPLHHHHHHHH

human C2 E476A = molecular target: T4, human C2 E476A (human, UniProt P06681 21-752)
T4 sequence: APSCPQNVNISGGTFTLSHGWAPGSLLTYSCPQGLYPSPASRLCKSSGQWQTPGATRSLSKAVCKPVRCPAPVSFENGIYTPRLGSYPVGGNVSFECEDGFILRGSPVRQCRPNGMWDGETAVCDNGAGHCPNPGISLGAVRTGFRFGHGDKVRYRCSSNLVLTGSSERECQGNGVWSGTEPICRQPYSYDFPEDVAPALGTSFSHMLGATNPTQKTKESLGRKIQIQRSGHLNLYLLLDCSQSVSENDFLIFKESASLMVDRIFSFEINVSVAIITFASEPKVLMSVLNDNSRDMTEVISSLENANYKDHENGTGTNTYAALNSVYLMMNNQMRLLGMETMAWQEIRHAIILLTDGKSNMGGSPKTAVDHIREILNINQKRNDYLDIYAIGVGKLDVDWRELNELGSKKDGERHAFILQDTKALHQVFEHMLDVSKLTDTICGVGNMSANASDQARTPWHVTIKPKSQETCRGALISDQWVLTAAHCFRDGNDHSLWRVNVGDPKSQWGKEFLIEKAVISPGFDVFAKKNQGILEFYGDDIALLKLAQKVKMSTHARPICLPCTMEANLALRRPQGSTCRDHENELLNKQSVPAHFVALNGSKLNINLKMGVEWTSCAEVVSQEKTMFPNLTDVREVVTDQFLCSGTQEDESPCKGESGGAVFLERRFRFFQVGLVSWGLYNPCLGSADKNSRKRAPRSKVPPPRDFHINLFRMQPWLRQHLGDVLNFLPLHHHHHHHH

B1: RF16-242 (antibody, human IgG4 S228P, lambda, V domains shown)
VH: EVQLLQSGAEVKKPGESLKISCKGSGYSFTSYWIGWVRQMPGKGLEWMGIIYPGDSDTRYSPSFQGQVTISADKSISTAYLQWSSLKASDTAMYYCARRGHYGDYFDYWGQGTLVTVSS
VL: SYELTQPPSVSVSPGQTARITCSGDALPKKYAYWYHQKSGQAPVLVIYEDRRRPSEIPERFSGSSSGTMATLTITGAQVEDEGVYFCYSRDRAGNQRVFGGGTQLTVLG
notes: pH-dependent anti-C2 antibody from a phage display library
Human C2 A444S
  Fold diff: 3 fold
Human C2 Q447A
  Fold diff: 4 fold
Human C2 N268A
  Fold diff: 2 fold
Human C2 E476A
  Fold diff: 2 fold
